From paper PMC10397247
Where two headings read alike, the source gives them in different places.

Legend:
4H656-AA = target: T1, 4H656-AA; test: two-hybrid library CCmax; details: mean of both orientations;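 also: natural log of median RNA to DNA barcode read ratio; higher means stronger binding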
T1 chain: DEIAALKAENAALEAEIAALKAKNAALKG

4H675-AA = target: T2, 4H675-AA; test: two-hybrid library CCmax; details: mean of both orientations;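 also: natural log of median RNA to DNA barcode read ratio; higher means stronger binding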
T2 chain: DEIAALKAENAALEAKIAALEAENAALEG

4H3102-AA = target: T3, 4H3102-AA; test: two-hybrid library CCmax; details: mean of both orientations;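 also: natural log of median RNA to DNA barcode read ratio; higher means stronger binding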
T3 chain: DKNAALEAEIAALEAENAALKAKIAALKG

4H428-AA = target: T4, 4H428-AA; test: two-hybrid library CCmax; details: mean of both orientations;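 also: natural log of median RNA to DNA barcode read ratio; higher means stronger binding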
T4 chain: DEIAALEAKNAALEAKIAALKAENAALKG

4H3446-AA = target: T5, 4H3446-AA; test: two-hybrid library CCmax; details: mean of both orientations;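 also: natural log of median RNA to DNA barcode read ratio; higher means stronger binding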
T5 chain: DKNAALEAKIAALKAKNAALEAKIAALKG

4H3066-AA = target: T6, 4H3066-AA; test: two-hybrid library CCmax; details: mean of both orientations;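 also: natural log of median RNA to DNA barcode read ratio; higher means stronger binding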
T6 chain: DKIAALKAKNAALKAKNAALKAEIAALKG

4H3920-AA = target: T7, 4H3920-AA; test: two-hybrid library CCmax; details: mean of both orientations
T7 chain: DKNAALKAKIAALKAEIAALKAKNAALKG

4H3029-AA = target: T8, 4H3029-AA; test: two-hybrid library CCmax
T8 chain: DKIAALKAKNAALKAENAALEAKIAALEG

4H3591-AA = target: T9, 4H3591-AA; test: two-hybrid library CCmax; details: mean of both orientations
T9 chain: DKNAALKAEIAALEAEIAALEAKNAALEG

4H478-AA = target: T10, 4H478-AA; test: two-hybrid library CCmax; details: mean of both orientations
T10 chain: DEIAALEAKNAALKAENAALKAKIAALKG

4H497-AA = target: T11, 4H497-AA; test: two-hybrid library CCmax; details: mean of both orientations
T11 chain: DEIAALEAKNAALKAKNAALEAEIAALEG

4H391-AA = target: T12, 4H391-AA; test: two-hybrid library CCmax; details: mean of both orientations
T12 chain: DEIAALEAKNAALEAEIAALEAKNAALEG

4H3709-AA = target: T13, 4H3709-AA; test: two-hybrid library CCmax; details: mean of both orientations
T13 chain: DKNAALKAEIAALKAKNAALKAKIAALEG

4H3939-AA = target: T14, 4H3939-AA; test: two-hybrid library CCmax; details: mean of both orientations
T14 chain: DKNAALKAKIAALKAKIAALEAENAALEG

4H971-AA = target: T15, 4H971-AA; test: two-hybrid library CCmax; details: mean of both orientations
T15 chain: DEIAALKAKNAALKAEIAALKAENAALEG

4H3417-AA = target: T16, 4H3417-AA; test: two-hybrid library CCmax; details: mean of both orientations
T16 chain: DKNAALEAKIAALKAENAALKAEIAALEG

4H3666-AA = target: T17, 4H3666-AA; test: two-hybrid library CCmax; details: mean of both orientations
T17 chain: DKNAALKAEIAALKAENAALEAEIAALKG

4H3121-AA = target: T18, 4H3121-AA; test: two-hybrid library CCmax; details: mean of both orientations
T18 chain: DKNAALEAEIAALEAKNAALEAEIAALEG

4H3628-AA = target: T19, 4H3628-AA; test: two-hybrid library CCmax; details: mean of both orientations
T19 chain: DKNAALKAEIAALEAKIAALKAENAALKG

4H_APH = target: T20, 4H_APH; test: two-hybrid library CCmax
T20 chain: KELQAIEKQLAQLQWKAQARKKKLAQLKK

4H895-AA = target: T21, 4H895-AA; test: two-hybrid library CCmax; details: mean of both orientations
T21 chain: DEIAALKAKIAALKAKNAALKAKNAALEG

GCN2_T = test: two-hybrid library CCmax
4H535-AA = target: T22, 4H535-AA; test: two-hybrid library CCmax
T22 chain: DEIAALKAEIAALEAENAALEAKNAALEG

4H58-AA = target: T23, 4H58-AA; test: two-hybrid library CCmax; details: mean of both orientations
T23 chain: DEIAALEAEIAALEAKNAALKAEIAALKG

4H_BCR = target: T24, 4H_BCR; test: two-hybrid library CCmax; details: mean of both orientations
T24 chain: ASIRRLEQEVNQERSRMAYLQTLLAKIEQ

4H_GCN4 = test: two-hybrid library CCmax
Sequence of 4H_GCN4 (chain, as listed by the source): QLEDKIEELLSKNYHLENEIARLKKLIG

4H4038-AA = target: T25, 4H4038-AA; test: two-hybrid library CCmax
T25 chain: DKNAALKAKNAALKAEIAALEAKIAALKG

O14-AA = target: T26, O14-AA; test: two-hybrid library CCmax; details: mean of both orientations
T26 chain: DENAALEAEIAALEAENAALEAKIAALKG

O13-AA = target: T27, O13-AA; test: two-hybrid library CCmax; details: mean of both orientations
T27 chain: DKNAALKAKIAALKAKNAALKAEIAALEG

4H451-AA = target: T28, 4H451-AA; test: two-hybrid library CCmax; details: mean of both orientations
T28 chain: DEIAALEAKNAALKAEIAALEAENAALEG

4H510-AA = target: T29, 4H510-AA; test: two-hybrid library CCmax; details: mean of both orientations
T29 chain: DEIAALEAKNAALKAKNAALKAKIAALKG

O11-AA = target: T30, O11-AA; test: two-hybrid library CCmax; details: mean of both orientations
T30 chain: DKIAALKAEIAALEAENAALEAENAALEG

4H43-AA = target: T31, 4H43-AA; test: two-hybrid library CCmax; details: mean of both orientations
T31 chain: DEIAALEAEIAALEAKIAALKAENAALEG

4H906-bA = target: T32, 4H906-bA; test: two-hybrid library CCNG1
T32 chain: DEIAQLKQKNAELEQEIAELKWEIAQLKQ

4H850-bA = target: T33, 4H850-bA; test: two-hybrid library CCNG1
T33 chain: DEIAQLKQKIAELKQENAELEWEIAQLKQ

4H619-bA = target: T34, 4H619-bA; test: two-hybrid library CCNG1
T34 chain: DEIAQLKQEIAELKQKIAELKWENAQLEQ

4H967-bH = target: T35, 4H967-bH; test: two-hybrid library CCNG1
T35 chain: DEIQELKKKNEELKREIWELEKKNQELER

4H72-bH = target: T36, 4H72-bH; test: two-hybrid library CCNG1
T36 chain: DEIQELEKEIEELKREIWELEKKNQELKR

4H918-bH = target: T37, 4H918-bH; test: two-hybrid library CCNG1
T37 chain: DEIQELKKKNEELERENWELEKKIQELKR

4H4001-bH = target: T38, 4H4001-bH; test: two-hybrid library CCNG1
T38 chain: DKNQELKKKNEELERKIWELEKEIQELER

4H883-bH = target: T39, 4H883-bH; test: two-hybrid library CCNG1
T39 chain: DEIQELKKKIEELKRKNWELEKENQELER

4H687-bH = target: T40, 4H687-bH; test: two-hybrid library CCNG1
T40 chain: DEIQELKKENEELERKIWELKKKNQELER

4H797-bH = target: T41, 4H797-bH; test: two-hybrid library CCNG1
T41 chain: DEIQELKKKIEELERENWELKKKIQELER

4H454-bH = target: T42, 4H454-bH; test: two-hybrid library CCNG1
T42 chain: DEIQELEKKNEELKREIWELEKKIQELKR

4H3855-bH = target: T43, 4H3855-bH; test: two-hybrid library CCNG1
T43 chain: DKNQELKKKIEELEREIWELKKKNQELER

O8-bA = target: T44, O8-bA; test: two-hybrid library CCNG1
T44 chain: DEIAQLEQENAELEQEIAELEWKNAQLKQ

4H908-bH = target: T45, 4H908-bH; test: two-hybrid library CCNG1
T45 chain: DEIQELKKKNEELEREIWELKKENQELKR

4H568-bH = target: T46, 4H568-bH; test: two-hybrid library CCNG1
T46 chain: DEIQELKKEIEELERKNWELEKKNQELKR

4H953-bH = target: T47, 4H953-bH; test: two-hybrid library CCNG1
T47 chain: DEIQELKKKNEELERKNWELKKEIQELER

4H607-bH = target: T48, 4H607-bH; test: two-hybrid library CCNG1
T48 chain: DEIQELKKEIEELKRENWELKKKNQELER

4H717-bH = target: T49, 4H717-bH; test: two-hybrid library CCNG1
T49 chain: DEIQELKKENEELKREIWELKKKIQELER

4H797-bA = target: T50, 4H797-bA; test: two-hybrid library CCNG1
T50 chain: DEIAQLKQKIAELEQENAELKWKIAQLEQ

4H683-bA = target: T51, 4H683-bA; test: two-hybrid library CCNG1
T51 chain: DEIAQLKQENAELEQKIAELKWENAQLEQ

4H754-bA = target: T52, 4H754-bA; test: two-hybrid library CCNG1
T52 chain: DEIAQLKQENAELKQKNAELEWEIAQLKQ

4H918-bA = target: T53, 4H918-bA; test: two-hybrid library CCNG1
T53 chain: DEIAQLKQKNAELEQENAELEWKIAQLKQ

4H780-bA = target: T54, 4H780-bA; test: two-hybrid library CCNG1
T54 chain: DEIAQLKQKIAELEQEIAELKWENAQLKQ

4H968-bA = target: T55, 4H968-bA; test: two-hybrid library CCNG1
T55 chain: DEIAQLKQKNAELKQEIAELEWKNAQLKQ

4H953-bA = target: T56, 4H953-bA; test: two-hybrid library CCNG1
T56 chain: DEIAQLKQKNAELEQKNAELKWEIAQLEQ

4H855-bA = target: T57, 4H855-bA; test: two-hybrid library CCNG1
T57 chain: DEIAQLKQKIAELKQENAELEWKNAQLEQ

Binder: DKIAALKAKNAALKAENAALEAKIAALEG [4H3029-AA]
- interaction score (4H656-AA): -1.3
- interaction score (4H675-AA): -1.45
- interaction score (4H3102-AA): 0.23
- interaction score (4H428-AA): -1.74
- interaction score (4H3446-AA): -1.79
- interaction score (4H3066-AA): -1.01
- interaction score (4H3920-AA): -1.69
- interaction score (4H3029-AA): -0.965
- interaction score (4H3591-AA): -1.37
- interaction score (4H478-AA): 1.48
- interaction score (4H497-AA): -0.722
- interaction score (4H391-AA): -1.42
- interaction score (4H3709-AA): -1.34
- interaction score (4H3939-AA): -1.98
- interaction score (4H971-AA): -2.45
- interaction score (4H3417-AA): -1.74
- interaction score (4H3666-AA): -1.86
- interaction score (4H3121-AA): -1.89
- interaction score (4H3628-AA): -1.87

Binder: DEIAALKAEIAALEAENAALEAKNAALEG [4H535-AA]
- interaction score (4H_APH): -1.48
- interaction score (4H895-AA): 2.1
- interaction score (GCN2_T): -2.47
- interaction score (4H535-AA): -0.291
- interaction score (4H58-AA): -0.661
- interaction score (4H_BCR): -1.23
- interaction score (4H_GCN4): -1.41

Binder: DKNAALKAKNAALKAEIAALEAKIAALKG [4H4038-AA]
- interaction score (4H_APH; mean of both orientations): -2.34
- interaction score (4H4038-AA): -0.654
- interaction score (GCN2_T): -1.9
- interaction score (O14-AA): 1.56
- interaction score (O13-AA): -2.19
- interaction score (4H451-AA): -1.08
- interaction score (4H510-AA): -1.16
- interaction score (O11-AA): -1.13
- interaction score (4H_BCR): -1.53
- interaction score (4H43-AA): 0.922
- interaction score (4H_GCN4): -1.46

Binder: DEIAQLKQEIAELKQKIAELKWENAQLEQ [4H619-bA]
- interaction score (4H906-bA): -1.09
- interaction score (4H850-bA): -0.446
- interaction score (4H619-bA): -0.211

Binder: DKIAALKAKNAALEAKIAALKAKNAALEG [4H2991-AA]
- interaction score (4H656-AA): -0.731
- interaction score (4H675-AA): -0.186
- interaction score (4H3102-AA): -0.548
- interaction score (4H428-AA): -0.913
- interaction score (4H3446-AA): -1.73
- interaction score (4H3066-AA): -1.81
- interaction score (4H3920-AA): -1.73
- interaction score (4H3029-AA; mean of both orientations): -1.76
- interaction score (4H3591-AA): -1.47
- interaction score (4H478-AA): -1.87
- interaction score (4H497-AA): -1.91
- interaction score (4H391-AA): 1.52
- interaction score (4H3709-AA): -1.43
- interaction score (4H3939-AA): -1.71
- interaction score (4H971-AA): -0.98
- interaction score (4H3417-AA): -1.68
- interaction score (4H3666-AA): -1.01
- interaction score (4H3121-AA): 1.28
- interaction score (4H3628-AA): -1.99

Binder: DKNQELKKKIEELEREIWELKKKNQELER [4H3855-bH]
- interaction score (4H967-bH): -0.847
- interaction score (4H72-bH): -1.07
- interaction score (4H918-bH): -0.471
- interaction score (4H4001-bH): 1.02
- interaction score (4H883-bH): 0.413
- interaction score (4H687-bH): -0.688
- interaction score (4H797-bH): -0.875
- interaction score (4H454-bH): 0.744
- interaction score (4H3855-bH): -1.88
- interaction score (O8-bA): -2.06
- interaction score (4H908-bH): -1.26
- interaction score (4H568-bH): -2.56
- interaction score (4H953-bH): -0.861
- interaction score (4H607-bH): -1.71
- interaction score (4H717-bH): -0.607

Binder: DEIAQLKQENAELEQKIAELKWENAQLEQ [4H683-bA]
- interaction score (4H797-bA): -1.06
- interaction score (4H683-bA): -0.189
- interaction score (4H754-bA): -0.665
- interaction score (4H918-bA): -0.784
- interaction score (4H780-bA): -1.43
- interaction score (O8-bA): -2.64
- interaction score (4H968-bA): 2.25
- interaction score (4H953-bA): -1.67
- interaction score (4H855-bA): -0.474
